T1: human scCD3εγ (scCD3εγ_Avi-Bio) (human, biotin on the C-terminal Avi-tag (in vitro, BirA) where the biotinylated form was used)
T1 construct: Used for all SPR and HTRF results on human CD3; also called recombinant human CD3; human CD3
T1 chain: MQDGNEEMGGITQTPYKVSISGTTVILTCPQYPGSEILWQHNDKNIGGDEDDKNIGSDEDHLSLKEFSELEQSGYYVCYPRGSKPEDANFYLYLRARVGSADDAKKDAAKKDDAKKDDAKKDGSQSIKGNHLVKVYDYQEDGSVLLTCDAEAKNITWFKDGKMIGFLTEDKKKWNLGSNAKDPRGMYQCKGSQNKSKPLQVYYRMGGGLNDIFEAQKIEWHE

T2: biotinylated extracellular domain of human CD123 (SEQ ID NO: 88), Fc and Avi tagged (human, UniProt P26951 19-303, biotinylated with BirA-GST (Avi tag))
T2 construct: also called hCD123
T2 sequence: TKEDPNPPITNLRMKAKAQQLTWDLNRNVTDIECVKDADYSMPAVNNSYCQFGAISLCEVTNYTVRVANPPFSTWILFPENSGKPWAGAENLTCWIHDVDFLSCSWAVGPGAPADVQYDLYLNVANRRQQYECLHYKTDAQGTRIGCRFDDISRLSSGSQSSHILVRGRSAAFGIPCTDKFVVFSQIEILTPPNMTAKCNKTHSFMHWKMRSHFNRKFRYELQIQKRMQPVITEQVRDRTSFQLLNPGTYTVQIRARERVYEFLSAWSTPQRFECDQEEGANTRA

T3: extracellular domain of human CD70 (SEQ ID NO: 89), hCD70-Fc-trimer, ACRO Biosystems (human, UniProt P32970 52-193, chemically biotinylated where the biotinylated form was used)
T3 construct: also called human CD70-Fc-trimer; Bio.CD70
T3 sequence: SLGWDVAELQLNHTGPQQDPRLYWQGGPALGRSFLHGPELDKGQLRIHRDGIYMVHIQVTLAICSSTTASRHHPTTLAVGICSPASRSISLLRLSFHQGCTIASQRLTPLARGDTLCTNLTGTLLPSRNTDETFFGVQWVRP

B1: DARPin® protein #28 (designed binder)
chain: DLGYKLLQAAYDGQLDEVRILLKAGADVNAKDSRGQTPLHYAASIGHLEIVEVLLKAGADVNAKDDHGWTPLHLAAWSGHLEIVEVLLKAGADVNAQDQEGTTPADLAAVQGHQDIAEVLQKAAGSPTPTPTTPTPTPTTPTPTPTGSDLGWKLLLAASRGQDDEVRILLAAGADVNAKDIDEGYTPLHIAAYYGHLEIVEVLLKAGADVNAKDRYGKTPLHLAAISGHEDIAEVLLKAGADVNAQDDKGDTPADLAADYGHEDIAEVLQKAAGSPTPTPTTPTPTPTTPTPTPTGSDLGQKLLEAAWAGQDDEVRELLKAGADVNAKNSRGWTPLHTAAQTGHLEIFEVLLKAGADVNAKDDKGVTPLHLAAALGHLEIVEVLLKAGADVNAQDSWGTTPADLAAKYGHEDIAEVLQKAA
notes: CD70-CD33-CD3; not shown: His-tag implied by anti-penta-His detection
B2: DARPin® protein #30 (designed binder)
chain: DLGYKLLQAAYDGQLDEVRILLKAGADVNAKDSRGQTPLHYAASIGHLEIVEVLLKAGADVNAKDDHGWTPLHLAAWSGHLEIVEVLLKAGADVNAQDQEGTTPADLAAVQGHQDIAEVLQKAAGSPTPTPTTPTPTPTTPTPTPTGSDLGKKLLEAALEGQDDEVRELLKAGADVNAKDQEGYTPLHLAAALGHLEIVEVLLKAGADVNAKDSIGRTPLHLAAYKGHLEIVEVLLKAGADVNAQDLLGETPADLAAEQGHEDIAEVLQKAAGSPTPTPTTPTPTPTTPTPTPTGSDLGVKLLRAAFHGQDDEVRILLAAGADVNAKDTDGETPLHYAAQFGHLEIVEVLLKAGADVNAKDAYGATPLHWAAWHGHLEIVEVLLKAGADVNAQDVSGATPADLAAKVGHEDIAEVLQKAAGSPTPTPTTPTPTPTTPTPTPTGSDLGQKLLEAAWAGQDDEVRELLKAGADVNAKNSRGWTPLHTAAQTGHLEIFEVLLKAGADVNAKDDKGVTPLHLAAALGHLEIVEVLLKAGADVNAQDSWGTTPADLAAKYGHEDIAEVLQKAA
notes: CD70-CD123-CD33-CD3; not shown: His-tag implied by anti-penta-His detection
B3: DARPin® protein #53 (designed binder)
chain: MRGSHHHHHHDLGKKLLEAARAGQDDEVRELLKAGADVNAKDYFSHTPLHLAARNGHLKIVEVLLKAGADVNAKDFAGKTPLHLAAADGHLEIVEVLLKAGADVNAQDIFGKTPADIAADAGHEDIAEVLQKAAGSPTPTPTTPTPTPTTPTPTPTGSDLGYKLLQAAYDGQLDEVRILLKAGADVNAKDSRGQTPLHYAASIGHLEIVEVLLKAGADVNAKDDHGWTPLHLAAWSGHLEIVEVLLKAGADVNAQDQEGTTPADLAAVQGHQDIAEVLQKAAGSPTPTPTTPTPTPTTPTPTPTGSDLGKKLLEAALEGQLDEVRELLKAGADVNAKDQEGYTPLHLAAALGHLEIVEVLLKAGADVNAKDSIGRTPLHLAAYKGHLEIVEVLLKAGADVNAQDLLGETPADLAAEQGHQDIAEVLQKAAGSPTPTPTTPTPTPTTPTPTPTGSDLGVKLLRAAVHGQLDEVRILLKAGADVNAKDTDGETPLHYAAQFGHLEIVEVLLKAGADVNAKDAYGATPLHWAAWHGHLEIVEVLLKAGADVNAQDVSGATPADLAAKVGHQDIAEVLQKAAGSPTPTPTTPTPTPTTPTPTPTGSDLGQKLLEAAWAGQDDEVRELLKAGADVNAKNSRGWTPLHTAAQTGHLEIFEVLLKAGADVNAKDDKGVTPLHLAAALGHLEIVEVLLKAGADVNAQDSWGTTPADLAAKYGHEDIAEVLQKAA
notes: HSA-CD70-CD123-CD33-CD3
B4: DARPin® protein #54 (designed binder)
chain: MRGSHHHHHHDLGKKLLEAARAGQDDEVRELLKAGADVNAKDYFSHTPLHLAARNGHLKIVEVLLKAGADVNAKDFAGKTPLHLAAADGHLEIVEVLLKAGADVNAQDIFGKTPADIAADAGHEDIAEVLQKAAGSPTPTPTTPTPTPTTPTPTPTGSDLGKKLLEAARAGQDDEVRELLKAGADVNAKDYFSHTPLHLAARNGHLKIVEVLLKAGADVNAKDFAGKTPLHLAAADGHLEIVEVLLKAGADVNAQDIFGKTPADIAADAGHEDIAEVLQKAAGSPTPTPTTPTPTPTTPTPTPTGSDLGYKLLQAAYDGQLDEVRILLKAGADVNAKDSRGQTPLHYAASIGHLEIVEVLLKAGADVNAKDDHGWTPLHLAAWSGHLEIVEVLLKAGADVNAQDQEGTTPADLAAVQGHQDIAEVLQKAAGSPTPTPTTPTPTPTTPTPTPTGSDLGKKLLEAALEGQLDEVRELLKAGADVNAKDQEGYTPLHLAAALGHLEIVEVLLKAGADVNAKDSIGRTPLHLAAYKGHLEIVEVLLKAGADVNAQDLLGETPADLAAEQGHQDIAEVLQKAAGSPTPTPTTPTPTPTTPTPTPTGSDLGVKLLRAAVHGQLDEVRILLKAGADVNAKDTDGETPLHYAAQFGHLEIVEVLLKAGADVNAKDAYGATPLHWAAWHGHLEIVEVLLKAGADVNAQDVSGATPADLAAKVGHQDIAEVLQKAAGSPTPTPTTPTPTPTTPTPTPTGSDLGQKLLEAAWAGQDDEVRELLKAGADVNAKNSRGWTPLHTAAQTGHLEIFEVLLKAGADVNAKDDKGVTPLHLAAALGHLEIVEVLLKAGADVNAQDSWGTTPADLAAKYGHEDIAEVLQKAA
notes: HSA-HSA-CD70-CD123-CD33-CD3

Experiments:
[1] = molecular target: T4, human CD3 on primary human pan-T cells (human, UniProt P07766 23-207; P09693 23-182; P04234 22-171; P20963 22-164); experiment: Mirrorball cytometry on primary human pan-T cells, 600 µM HSA
T4 construct: whole, on cells; Native complex on T cells isolated from PBMC; also called CD3 on Pan-T cells
T4 sequence (P07766 23-207, chain 1 of 4): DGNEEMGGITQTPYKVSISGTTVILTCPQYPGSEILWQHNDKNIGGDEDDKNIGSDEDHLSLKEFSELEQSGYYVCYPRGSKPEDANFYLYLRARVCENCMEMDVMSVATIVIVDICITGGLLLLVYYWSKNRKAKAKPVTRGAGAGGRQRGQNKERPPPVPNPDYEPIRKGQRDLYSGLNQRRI
T4 sequence (P09693 23-182, chain 2 of 4): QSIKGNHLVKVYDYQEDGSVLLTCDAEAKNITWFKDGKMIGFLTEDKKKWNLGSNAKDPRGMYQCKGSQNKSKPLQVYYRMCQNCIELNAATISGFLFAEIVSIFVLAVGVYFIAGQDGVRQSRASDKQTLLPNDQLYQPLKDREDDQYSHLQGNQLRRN
T4 sequence (P04234 22-171, chain 3 of 4): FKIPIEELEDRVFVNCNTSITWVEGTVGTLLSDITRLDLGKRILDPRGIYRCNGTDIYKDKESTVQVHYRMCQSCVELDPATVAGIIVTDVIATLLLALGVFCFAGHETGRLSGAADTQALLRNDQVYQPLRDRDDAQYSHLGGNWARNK
T4 sequence (P20963 22-164, chain 4 of 4): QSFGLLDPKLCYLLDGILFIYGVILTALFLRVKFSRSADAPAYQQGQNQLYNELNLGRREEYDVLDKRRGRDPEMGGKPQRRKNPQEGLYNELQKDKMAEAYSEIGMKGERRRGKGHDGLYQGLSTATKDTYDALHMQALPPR
Description: The determination of T cell binding was performed with primary human T cells using Mirrorball laser scanning imaging cytometry. Therefore, primary T cells were isolated from human peripheral blood mononuclear cells (PBMCs) using a pan-T cell purification kit (Miltenyi Biotec). A titration of DARPin® protein #27, DARPin® protein #28 and DARPin® protein #29 and DARPin® protein #30 were incubated with 50′000 pan-T cells per well in presence of 600 μM human serum albumin (to mimic physiological serum concentration) for 30 minutes at 4° C. Two benchmark T-cell engagers, AMG330 and flotetuzumab were applied as controls, targeting CD33 or CD123. After washing, CD3 binding was detected by 1:100-diluted anti-penta-His Alexa Fluor 488 antibody (Qiagen). After 30 min incubation at 4° C., cells were washed and resuspended in Cytofix fixation buffer (BD Biosciences) and counterstained by 5 μM DRAQ5 (Abcam) for 15 min at RT. Median of mean fluorescence intensities of Alexa Fluor 488 binding on far-red counterstained cells were measured by Mirrorball using Cellista software (SPT Labtech) and data was plotted using GraphPad Prism 8.

[2] = molecular target: T1, human scCD3εγ (scCD3εγ_Avi-Bio); experiment: SPR (ProteOn), DARPin on GLC chip, scCD3εγ as analyte
Description: Similarly, the binding affinities of two purified ankyrin repeat proteins on recombinant human CD3 target were analyzed as described before. Briefly, DARPin® protein #53, DARPin® protein #54 in NaOAc pH 4.5 was coated on a GLC chip (BioRad) to a level of around 790-1500 resonance units (RU). The interaction of ankyrin repeat protein and human CD3 was then measured by injecting 300 μl running buffer (PBS, pH 7.4 containing 0.005% Tween 20®) containing serial dilutions of human scCD3εγ (56.4 μM), was diluted in PBST (PBS, pH 7.4 containing 0.005% Tween 20®) and covering a concentration range between 300 nM and 19 nM for multi-trace SPR measurements, followed by a running buffer flow for at least 10 minutes at a constant flow rate of 60 μl/min (off-rate measurement).
The regeneration was performed using 30 μl of 10 mM Glycine pH 2. The signals (i.e. resonance unit (RU) values) of the interspots and a reference injection (i.e. injection of running buffer only) were subtracted from the RU traces obtained after injection of CD3 (double-referencing). Binding parameters (KD, on-rate, off-rate) against CD3 were determined by using a standard Langmuir fit model.

[3] = molecular target: T5, biotinylated extracellular domain of human CD33 (SEQ ID NO: 87), Fc and Avi tagged (human, UniProt P20138 18-259, biotinylated with BirA-GST (Avi tag)); experiment: SPR (ProteOn XPR36), target on GLC chip, DARPin as analyte
T5 construct: also called hCD33; human target hCD33
T5 sequence (P20138 18-259 R69G): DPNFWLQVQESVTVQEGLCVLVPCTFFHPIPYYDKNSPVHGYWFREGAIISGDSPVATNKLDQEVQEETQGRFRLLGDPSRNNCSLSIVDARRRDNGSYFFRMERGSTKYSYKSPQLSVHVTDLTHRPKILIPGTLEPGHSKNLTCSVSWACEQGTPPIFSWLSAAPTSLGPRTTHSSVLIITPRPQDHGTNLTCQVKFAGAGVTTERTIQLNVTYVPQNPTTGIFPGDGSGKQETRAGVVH

[4] = molecular target: T2, biotinylated extracellular domain of …; experiment: as above
[5] = molecular target: T3, extracellular domain of human CD70 (SEQ …); experiment: as above
human serum albumin = molecular target: T6, human serum albumin (human, UniProt P02768 25-609); experiment: as above
T6 construct: also called HSA; SA
T6 sequence (P02768 25-609 limits assumed): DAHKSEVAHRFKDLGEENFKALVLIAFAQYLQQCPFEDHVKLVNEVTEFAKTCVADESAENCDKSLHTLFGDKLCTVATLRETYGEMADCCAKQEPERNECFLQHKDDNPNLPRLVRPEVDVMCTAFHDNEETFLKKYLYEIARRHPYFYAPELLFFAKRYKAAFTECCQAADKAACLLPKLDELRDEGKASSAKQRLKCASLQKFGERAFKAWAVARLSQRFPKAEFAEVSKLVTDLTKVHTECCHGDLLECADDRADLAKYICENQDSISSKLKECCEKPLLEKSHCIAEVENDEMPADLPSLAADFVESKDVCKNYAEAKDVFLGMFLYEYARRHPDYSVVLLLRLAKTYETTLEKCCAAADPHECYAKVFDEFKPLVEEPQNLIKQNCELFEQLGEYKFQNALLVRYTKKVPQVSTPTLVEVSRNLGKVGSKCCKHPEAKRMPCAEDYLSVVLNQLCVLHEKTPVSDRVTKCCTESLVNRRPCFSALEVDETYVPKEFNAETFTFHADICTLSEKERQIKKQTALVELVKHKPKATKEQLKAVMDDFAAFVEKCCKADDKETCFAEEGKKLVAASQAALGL

Binder | EC50 [1] | Kd [2] | koff [2] | kon [2] | Kd [3] | Kd [4] | Kd [5] | Kd (human serum albumin)
B1 | 1.41 nM |  |  |  |  |  |  | 
B2 | 1.8 nM |  |  |  |  |  |  | 
B3 |  | 139 nM | 0.0065 s⁻¹ | 48000 M⁻¹ s⁻¹ | 12 nM | 8 nM | 0.7 nM | 24 nM
B4 |  | 129 nM | 0.0067 s⁻¹ | 52000 M⁻¹ s⁻¹ | 8.2 nM | 33 nM | 0.61 nM | 1.2 nM
